Series [1] addresses GST-hPygo2(58-84) (human) (UniProt Q9BRQ0). The series is described as follows: BLI; GST-Pygo2(58-84) wt or mutant loaded on GST biosensors, quenched with free GST; wt or mutant MBP-LDB1-SSBP2 in solution (0.03-30 uM); Octet RED96, 30 °C; KD from steady-state analysis.
Series [2] concerns the target T1, Avi-tagged wt BCL9-Pygo2 complex, biotinylated (human, UniProt O00512 1-1426; Q9BRQ0 1-406, biotin on the Avi tag (BirA)).
T1 construct: B-cell lymphoma 9 protein (BCL9), human, full length; Pygopus 2 (Pygo2), human, full length; also called Biotinylated BCL9-Pygo2; recombinant BCL9-Pygo; source: HEK293S GnTI- cells, co-transfected, purified (Flag beads, Superose 6 SEC), biotinylated with BirA; not shown: Avi, C-terminal, kept
The series can be described thus: BLI; Octet RED96; biotinylated Avi-tagged BCL9-Pygo2 (wt or deletion) on SA biosensors, full-length LDB1-SSBP2 in solution at 1000, 300, 100, 30 nM; 30 °C; 20 mM Tris-HCl pH 8.0, 100 mM NaCl, 10 mM DTT, 10 mg/ml BSA; steady-state analysis. Particulars: both partners purified. Background: In BLI a coated tip is dipped into the sample, and binding shifts an interference pattern.

Series [3] concerns the target T2, hBCL9ΔHD3-Pygo2 complex, Avi-tagged, biotinylated (human, UniProt O00512 1-1426; Q9BRQ0 1-406, lacking hBCL9(461–489) fragment, biotin on the Avi tag (BirA)).
T2 construct: B-cell lymphoma 9 protein (BCL9), human, full length lacking HD3 (461-489); Pygopus 2 (Pygo2), human, full length; also called hBCL9^△HD3-Pygo2; HD3-deleted BCL9; source: HEK293S GnTI- cells, co-transfected, purified (Flag beads, Superose 6 SEC), biotinylated with BirA; not shown: Avi, C-terminal, kept
Described as above. Particulars: both partners purified.
T2 sequence (O00512 other isoform, or with tags, fused parts or gaps with the stated changes, chain 1 of 2): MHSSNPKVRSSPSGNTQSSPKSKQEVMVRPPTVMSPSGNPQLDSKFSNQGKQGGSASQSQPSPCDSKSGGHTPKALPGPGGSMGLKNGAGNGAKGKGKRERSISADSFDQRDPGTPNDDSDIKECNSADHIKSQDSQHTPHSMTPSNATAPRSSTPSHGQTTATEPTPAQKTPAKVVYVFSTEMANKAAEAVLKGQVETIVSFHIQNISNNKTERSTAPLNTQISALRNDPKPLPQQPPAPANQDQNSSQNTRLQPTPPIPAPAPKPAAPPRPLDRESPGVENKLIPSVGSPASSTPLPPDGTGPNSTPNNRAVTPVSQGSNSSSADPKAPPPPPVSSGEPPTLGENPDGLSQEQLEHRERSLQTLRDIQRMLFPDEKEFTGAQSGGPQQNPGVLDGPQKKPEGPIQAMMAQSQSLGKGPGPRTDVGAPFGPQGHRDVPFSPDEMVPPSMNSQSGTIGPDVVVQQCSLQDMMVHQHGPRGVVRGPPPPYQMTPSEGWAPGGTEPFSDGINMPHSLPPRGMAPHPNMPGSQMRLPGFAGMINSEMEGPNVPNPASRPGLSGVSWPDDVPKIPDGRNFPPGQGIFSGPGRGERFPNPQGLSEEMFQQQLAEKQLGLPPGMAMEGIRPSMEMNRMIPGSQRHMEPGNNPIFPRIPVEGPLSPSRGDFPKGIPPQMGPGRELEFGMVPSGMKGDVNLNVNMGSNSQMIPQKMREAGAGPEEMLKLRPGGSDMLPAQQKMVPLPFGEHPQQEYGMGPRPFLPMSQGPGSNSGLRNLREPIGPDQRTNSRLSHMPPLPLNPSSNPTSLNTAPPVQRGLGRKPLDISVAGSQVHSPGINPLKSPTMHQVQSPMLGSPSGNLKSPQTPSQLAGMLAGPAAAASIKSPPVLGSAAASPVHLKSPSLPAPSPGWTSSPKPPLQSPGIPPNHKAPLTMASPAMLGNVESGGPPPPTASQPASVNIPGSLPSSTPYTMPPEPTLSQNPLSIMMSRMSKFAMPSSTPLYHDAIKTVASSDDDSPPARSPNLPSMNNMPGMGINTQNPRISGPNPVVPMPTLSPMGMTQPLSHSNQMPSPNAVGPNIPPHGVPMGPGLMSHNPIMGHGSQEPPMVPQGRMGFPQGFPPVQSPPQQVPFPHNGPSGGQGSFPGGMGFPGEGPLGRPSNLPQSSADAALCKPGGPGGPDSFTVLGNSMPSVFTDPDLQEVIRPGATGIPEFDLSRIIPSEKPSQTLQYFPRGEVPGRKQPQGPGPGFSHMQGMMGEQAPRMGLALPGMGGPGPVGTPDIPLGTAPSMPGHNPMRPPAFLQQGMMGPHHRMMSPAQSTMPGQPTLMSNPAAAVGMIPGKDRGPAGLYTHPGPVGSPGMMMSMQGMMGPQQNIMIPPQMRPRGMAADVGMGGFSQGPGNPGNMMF
T2 sequence (Q9BRQ0 whole entry, stated change not applied, chain 2 of 2, the tested form may be a part): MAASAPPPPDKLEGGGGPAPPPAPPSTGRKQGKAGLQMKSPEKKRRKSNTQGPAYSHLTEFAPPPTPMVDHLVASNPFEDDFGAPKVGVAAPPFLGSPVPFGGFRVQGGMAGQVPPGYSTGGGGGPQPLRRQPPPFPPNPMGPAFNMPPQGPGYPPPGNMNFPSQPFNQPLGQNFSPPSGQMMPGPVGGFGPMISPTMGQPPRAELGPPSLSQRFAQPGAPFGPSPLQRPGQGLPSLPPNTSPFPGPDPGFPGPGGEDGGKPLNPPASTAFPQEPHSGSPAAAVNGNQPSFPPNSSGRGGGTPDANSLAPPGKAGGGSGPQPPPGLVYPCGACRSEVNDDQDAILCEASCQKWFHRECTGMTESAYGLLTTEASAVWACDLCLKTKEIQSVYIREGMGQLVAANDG

For series [4], the target named is hBCL9ΔHD3-Pygo2 complex, Avi-tagged, biotinylated (human, UniProt O00512 1-1426; Q9BRQ0 1-406, lacking hBCL9(461–489) fragment, biotin on the Avi tag (BirA)). The series can be described thus: BLI.
For series [5], the target named is T3, MBP-LDB1(56–285)-SSBP2(1–94) complex, SSBP2 Y72A (human, UniProt Q86U70 56-285; P81877 1-94, Y72A).
T3 sequence 1: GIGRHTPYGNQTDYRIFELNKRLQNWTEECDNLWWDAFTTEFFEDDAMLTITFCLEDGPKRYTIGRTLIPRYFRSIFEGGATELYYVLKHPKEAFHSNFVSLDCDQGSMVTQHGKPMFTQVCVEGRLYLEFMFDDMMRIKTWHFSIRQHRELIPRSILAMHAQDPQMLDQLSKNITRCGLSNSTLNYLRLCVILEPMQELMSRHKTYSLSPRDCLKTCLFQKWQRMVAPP
T3 sequence 2: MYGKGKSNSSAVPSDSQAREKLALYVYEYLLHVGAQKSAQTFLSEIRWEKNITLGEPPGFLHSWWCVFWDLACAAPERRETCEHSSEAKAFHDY
The series is described as follows: BLI.

Series [6] concerns the molecule itself. The series can be described thus: crystal structure; Pygo2(58–84) peptide incubated with LDB1-SSBP2 (co-expressed, co-purified) at 5:1; hanging drop, 100 mM Li2SO4, 100 mM sodium citrate pH 5.6, 1% PEG400, 10 mM DTT, microseeding; 2.45 Å.

Numbering of substitutions follows the chain as printed.

T1 sequence (O00512 whole entry, chain 1 of 2): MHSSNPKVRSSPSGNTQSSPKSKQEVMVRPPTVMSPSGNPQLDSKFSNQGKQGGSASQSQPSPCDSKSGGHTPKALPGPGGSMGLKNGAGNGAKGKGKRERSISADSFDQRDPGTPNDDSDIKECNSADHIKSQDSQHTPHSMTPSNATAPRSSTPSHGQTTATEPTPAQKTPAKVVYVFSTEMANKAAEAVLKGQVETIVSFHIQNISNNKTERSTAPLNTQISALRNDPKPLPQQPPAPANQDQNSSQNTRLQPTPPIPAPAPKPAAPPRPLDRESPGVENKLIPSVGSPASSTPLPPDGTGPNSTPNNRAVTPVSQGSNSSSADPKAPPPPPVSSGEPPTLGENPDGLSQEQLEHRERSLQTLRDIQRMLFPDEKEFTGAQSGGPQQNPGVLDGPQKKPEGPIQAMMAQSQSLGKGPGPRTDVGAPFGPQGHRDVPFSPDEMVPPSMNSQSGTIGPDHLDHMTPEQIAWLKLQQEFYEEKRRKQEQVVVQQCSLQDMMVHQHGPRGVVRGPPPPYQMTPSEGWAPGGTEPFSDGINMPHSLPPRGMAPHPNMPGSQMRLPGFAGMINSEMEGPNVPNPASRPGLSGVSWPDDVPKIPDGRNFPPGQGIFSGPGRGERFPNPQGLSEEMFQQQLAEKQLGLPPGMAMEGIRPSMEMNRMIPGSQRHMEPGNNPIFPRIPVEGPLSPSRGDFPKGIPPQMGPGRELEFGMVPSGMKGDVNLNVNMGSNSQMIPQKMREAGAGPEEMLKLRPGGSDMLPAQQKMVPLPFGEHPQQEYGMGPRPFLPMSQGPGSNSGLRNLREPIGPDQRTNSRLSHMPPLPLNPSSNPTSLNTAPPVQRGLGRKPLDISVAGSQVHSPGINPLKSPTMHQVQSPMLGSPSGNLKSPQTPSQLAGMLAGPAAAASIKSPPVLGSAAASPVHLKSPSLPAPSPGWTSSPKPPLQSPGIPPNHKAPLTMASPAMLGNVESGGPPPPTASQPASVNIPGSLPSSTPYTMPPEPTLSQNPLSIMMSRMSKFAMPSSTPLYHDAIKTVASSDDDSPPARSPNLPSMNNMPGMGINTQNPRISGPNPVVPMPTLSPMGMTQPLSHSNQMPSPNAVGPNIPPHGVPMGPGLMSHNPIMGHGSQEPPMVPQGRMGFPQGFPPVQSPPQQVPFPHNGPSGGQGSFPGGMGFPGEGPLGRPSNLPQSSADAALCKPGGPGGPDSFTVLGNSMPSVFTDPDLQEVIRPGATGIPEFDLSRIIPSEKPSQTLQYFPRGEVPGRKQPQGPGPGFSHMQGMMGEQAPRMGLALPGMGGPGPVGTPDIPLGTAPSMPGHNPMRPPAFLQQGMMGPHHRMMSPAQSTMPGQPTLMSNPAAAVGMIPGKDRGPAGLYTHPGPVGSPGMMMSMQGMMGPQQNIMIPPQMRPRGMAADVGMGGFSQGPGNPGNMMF
T1 sequence (Q9BRQ0 whole entry, chain 2 of 2): as the sequence (Q9BRQ0 whole entry, stated change not applied, chain 2 of 2, the tested form may be a part) above

As usually defined, the Kd is the free concentration of one partner at which half of the binding sites on the other are occupied at equilibrium, for simple one-to-one binding. The low end stands for higher affinity, the high end for lower affinity. The molecule “MBP-LDB1(56-285)-SSBP2(1-94) Y72A complex (from UniProt Q86U70 56-285; P81877 1-94)” displayed a dissociation constant Kd in series [1] of 22 µM.

B1: LDB1-SSBP2 complex (full-length human proteins) (complex)
chain 1: MSVGCACPGCSSKSFKLYSPKEPPNGNAFPPFHPGTMLDRDVGPTPMYPPTYLEPGIGRHTPYGNQTDYRIFELNKRLQNWTEECDNLWWDAFTTEFFEDDAMLTITFCLEDGPKRYTIGRTLIPRYFRSIFEGGATELYYVLKHPKEAFHSNFVSLDCDQGSMVTQHGKPMFTQVCVEGRLYLEFMFDDMMRIKTWHFSIRQHRELIPRSILAMHAQDPQMLDQLSKNITRCGLSNSTLNYLRLCVILEPMQELMSRHKTYSLSPRDCLKTCLFQKWQRMVAPPAEPTRQQPSKRRKRKMSGGSTMSSGGGNTNNSNSKKKSPASTFALSSQVPDVMVVGEPTLMGGEFGDEDERLITRLENTQFDAANGIDDEDSFNNSPALGANSPWNSKPPSSQESKSENPTSQASQ
chain 2: MYGKGKSNSSAVPSDSQAREKLALYVYEYLLHVGAQKSAQTFLSEIRWEKNITLGEPPGFLHSWWCVFWDLYCAAPERRETCEHSSEAKAFHDYSAAAAPSPVLGNIPPGDGMPVGPVPPGFFQPFMSPRYPGGPRPPLRIPNQALGGVPGSQPLLPSGMDPTRQQGHPNMGGPMQRMTPPRGMVPLGPQNYGGAMRPPLNALGGPGMPGMNMGPGGGRPWPNPTNANSIPYSSASPGNYVGPPGGGGPPGTPIMPSPADSTNSGDNMYTLMNAVPPGPNRPNFPMGPGSDGPMGGLGGMESHHMNGSLGSGDMDSISKNSPNNMSLSNQPGTPRDDGEMGGNFLNPFQSESYSPSMTMSV
notes: the discussion speaks of a 2:4 (LDB1:SSBP2) stoichiometry of the LDB1-SSBP2 core complex; not measured for the full-length complex; also called ChiLS; full-length LDB1-SSBP2 complex; source: HEK293S GnTI- cells, co-transfected, purified (Flag beads, Superose 6 SEC)
With B1, the equilibrium dissociation constant (Kd) in series [2] was determined as 0.032 µM; in series [4], 0.039 µM. Moreover, the binding result in series [3] is listed as “binds”.

On to LTEFAPPPTPMVDHLVASNPFEDDFGA (domain or fragment) [GST-Pygo2(58–84)], for which the equilibrium dissociation constant (Kd) in series [5] came to 22 µM.

B2: human LDB1(56–285), tags removed (domain or fragment, UniProt Q86U70 56-285, looked up)
chain: T3 sequence 1
notes: chain of the crystallised complex; source: E. coli BL21 (DE3), co-expressed with SSBP2(1–94), purified (Ni-NTA, TEV cleavage, HiTrap Q, Superdex 200); not shown: His, N-terminal, cleaved; MBP, N-terminal, cleaved
Consider B2, for which the binding result in series [6] is “binds”.

B3: human SSBP2(1–94), tag removed (domain or fragment, UniProt P81877 1-94, looked up)
chain: T3 sequence 2 with A72Y
notes: chain of the crystallised complex; not shown: His, N-terminal, cleaved
For B3, the binding result in series [6] is listed as “binds”.

(Values after article PMC10287724, “Structural basis of the interaction between BCL9-Pygo and LDB-SSBP complexes in assembling the Wnt enhanceosome” (Nature Communications, 2023).)
